The values below come from paper PMC2186201.

The target of this assay is human C3bi, bound to erythrocytes (EC3bi) (human) (UniProt P01024). The assay is described as follows: conglutinin-dependent hemagglutination.

B1: bovine conglutinin (natural protein)
chain: AEMTTFSQKILANACTLVMCSPLESGLPGHDGQDGRECPHGEKGDPGSPGPAGRAGRPGWVGPIGPKGDNGFVGEPGPKGDTGPRGPPGMPGPAGREGPSGKQGSMGPPGTPGPKGETGPKGGVGAPGIQGFPGPSGLKGEKGAPGETGAPGRAGVTGPSGAIGPQGPSGARGPPGLKGDRGDPGETGAKGESGLAEVNALKQRVTILDGHLRRFQNAFSQYKKAVLFPDGQAVGEKIFKTAGAVKSYSDAEQLCREAKGQLASPRSSAENEAVTQMVRAQEKNAYLSMNDISTEGRFTYPTGEILVYSNWADGEPNNSDEGQPENCVEIFPDGKWNDVPCSKQLLVICEF
The molecule B1 yielded a conglutination (percent of activity) of 100%.
